Data taken from patent publication US20240025949A1, “Beta-Arrestin Effectors and Compositions and Methods of Use Thereof” (Trevena, Inc., priority 2021, published 2024).

Columns and labels:
[1] = target: rat angiotensin 2 type 1 receptor (rat) (UniProt P25095); assay: cell-based or functional assay
[2] = target: human angiotensin 2 type 1 receptor (human) (UniProt P30556); assay: cell-based or functional assay
human angiotensin 2 type 1 receptor (human), sequence (P30556 whole entry): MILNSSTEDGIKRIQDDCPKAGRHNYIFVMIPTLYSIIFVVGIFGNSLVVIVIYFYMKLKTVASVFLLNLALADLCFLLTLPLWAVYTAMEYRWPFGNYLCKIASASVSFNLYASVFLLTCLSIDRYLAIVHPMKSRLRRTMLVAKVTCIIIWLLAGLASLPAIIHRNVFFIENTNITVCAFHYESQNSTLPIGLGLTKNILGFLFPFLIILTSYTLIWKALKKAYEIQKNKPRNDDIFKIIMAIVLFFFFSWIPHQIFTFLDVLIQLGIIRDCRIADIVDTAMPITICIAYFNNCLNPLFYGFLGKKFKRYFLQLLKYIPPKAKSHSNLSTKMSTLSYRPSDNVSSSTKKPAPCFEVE

rat angiotensin 2 type 1 receptor (rat), sequence (P25095 whole entry): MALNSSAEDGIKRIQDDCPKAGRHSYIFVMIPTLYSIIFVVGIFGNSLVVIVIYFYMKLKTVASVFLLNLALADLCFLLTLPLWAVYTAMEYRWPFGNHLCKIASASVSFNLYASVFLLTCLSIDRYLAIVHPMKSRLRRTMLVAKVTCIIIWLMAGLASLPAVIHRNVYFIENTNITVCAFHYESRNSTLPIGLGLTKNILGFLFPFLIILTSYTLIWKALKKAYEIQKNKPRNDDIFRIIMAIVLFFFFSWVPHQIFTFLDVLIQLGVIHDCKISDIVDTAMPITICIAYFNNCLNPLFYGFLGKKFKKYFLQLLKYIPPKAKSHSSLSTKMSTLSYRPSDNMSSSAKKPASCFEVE

## SEQ ID NO: 27 (Sar-Arg-Val-Tyr-Ile-His-Pro-D-Ala-OH) (peptide)
[1]
  IP One EC50: > 10000 nM
  b-arrestin2 EC50: 16 nM
  b-arrestin2 Max: 84.2%

## SEQ ID NO: 82 (NM-D-Ala-Arg-Val-Tyr-Ile-His-Pro-D-Ala-OH) (peptide)
[2]
  IP One EC50: > 10000 nM
  b-arrestin2 EC50: 320 nM
  b-arrestin2 Max: 38.3%
[1]
  IP One EC50: > 10000 nM
  b-arrestin2 EC50: 130 nM
  b-arrestin2 Max: 60.6%

## SEQ ID NO: 10 (Sar-Arg-Val-Tyr-Ile-His-Pro-Ala-NH2) (peptide)
[1]
  IP One Max: 13.3%
  b-arrestin2 Max: 60.3%

## SEQ ID NO: 9 (Sar-Arg-Val-Tyr-Ile-His-Pro-Ala-OH) (peptide)
[1]
  IP One Max: 9.5%
  b-arrestin2 Max: 74%

## SEQ ID NO: 5 (Sar-Arg-Val-Gly-Val-His-Pro-Gly-OH) (peptide)
[2]
  IP One EC50: 65 nM
  IP One Max: 18.1%
  b-arrestin2 EC50: 1600 nM
  b-arrestin2 Max: 39.4%
[1]
  IP One EC50: 96 nM
  IP One Max: 24.8%
  b-arrestin2 EC50: 1900 nM
  b-arrestin2 Max: 61.7%

## SEQ ID NO: 64 (Glu-Arg-Val-Tyr-Phe-His-Pro-NH2) (peptide)
[2]
  IP One EC50: > 10000 nM
  b-arrestin2 EC50: 1200 nM
  b-arrestin2 Max: 20.4%
[1]
  IP One EC50: > 10000 nM
  b-arrestin2 EC50: 870 nM
  b-arrestin2 Max: 26.9%

## SEQ ID NO: 32 (Me2G-Arg-Val-Tyr-Ile-His-Pro-Ala-OH) (peptide)
[2]
  b-arrestin2 EC50: 79 nM
  b-arrestin2 Max: 55.6%
[1]
  IP One EC50: 24 nM
  IP One Max: 6.8%
  b-arrestin2 EC50: 43 nM
  b-arrestin2 Max: 80.2%

## SEQ ID NO: 6 (Sar-Arg-Val-Gly-Val-His-Pro-Gly-NH2) (peptide)
[2]
  IP One EC50: 110 nM
  IP One Max: 14.1%
  b-arrestin2 EC50: 920 nM
  b-arrestin2 Max: 12.1%
[1]
  IP One EC50: 59 nM
  IP One Max: 21.9%
  b-arrestin2 EC50: > 10000 nM

## SEQ ID NO: 30 (Sar-Arg-Val-Tyr-OMTh-His-Pro-Ala-OH) (peptide)
[2]
  IP One EC50: > 10000 nM
  b-arrestin2 EC50: 9.2 nM
  b-arrestin2 Max: 68.2%
[1]
  IP One EC50: > 10000 nM
  b-arrestin2 EC50: 8.2 nM
  b-arrestin2 Max: 80.4%

## SEQ ID NO: 2 (Sar-Arg-Val-Ile-Ile-His-Pro-Ile-NH2) (peptide)
[2]
  b-arrestin2 Max: 24.9%
[1]
  IP One EC50: 360 nM
  IP One Max: 33.8%

## SEQ ID NO: 84 (Sar-Arg-Val-Tyr-OMTh-His-Pro-D-Ala-OH) (peptide)
[2]
  IP One EC50: > 10000 nM
  b-arrestin2 EC50: 32 nM
  b-arrestin2 Max: 50.5%
[1]
  IP One EC50: > 10000 nM
  b-arrestin2 EC50: 16 nM
  b-arrestin2 Max: 80.6%

## SEQ ID NO: 65 (N-Me-Asp-Arg-Val-Tyr-Phe-His-Pro-NH2) (peptide)
[2]
  IP One EC50: > 10000 nM
  b-arrestin2 EC50: 2000 nM
  b-arrestin2 Max: 37.8%
[1]
  IP One EC50: > 10000 nM
  b-arrestin2 EC50: 2800 nM
  b-arrestin2 Max: 67.3%

## SEQ ID NO: 8 (Sar-Arg-Val-Tyr-Val-His-Pro-Ala-NH2) (peptide)
[2]
  IP One EC50: > 10000 nM
  b-arrestin2 EC50: 210 nM
  b-arrestin2 Max: 36.9%
[1]
  IP One EC50: 35 nM
  IP One Max: 11.3%
  b-arrestin2 EC50: 200 nM
  b-arrestin2 Max: 41.8%

## SEQ ID NO: 83 (Sar-Arg-Val-Tyr-NVA-His-Pro-D-Ala-OH) (peptide)
[2]
  IP One EC50: > 10000 nM
  b-arrestin2 EC50: 200 nM
  b-arrestin2 Max: 34.3%
[1]
  IP One EC50: > 10000 nM
  b-arrestin2 EC50: 50 nM
  b-arrestin2 Max: 70.2%

## SEQ ID NO: 44 (NMAla-Arg-Val-Tyr-Ile-His-Pro-D-Ala-OH) (peptide)
[2]
  IP One EC50: > 10000 nM
  b-arrestin2 EC50: 80 nM
  b-arrestin2 Max: 47.3%
[1]
  IP One EC50: 8.2 nM
  IP One Max: 14.6%
  b-arrestin2 EC50: 65 nM
  b-arrestin2 Max: 71.9%

## SEQ ID NO: 25 (Asp-Arg-Val-Tyr-Ile-His-Pro-Ala-OH) (peptide)
[2]
  b-arrestin2 Max: 57.9%
[1]
  IP One Max: 14.1%
  b-arrestin2 Max: 77%

## SEQ ID NO: 29 (Sar-Arg-Val-OMTyr-Ile-His-Pro-Ala-OH) (peptide)
[2]
  IP One EC50: > 10000 nM
  b-arrestin2 EC50: 590 nM
  b-arrestin2 Max: 43.3%
[1]
  IP One EC50: > 10000 nM
  b-arrestin2 EC50: 200 nM
  b-arrestin2 Max: 64.8%

## SEQ ID NO: 3 (Sar-Arg-Val-Ile-Val-His-Pro-Ile-OH) (peptide)
[2]
  IP One EC50: > 10000 nM
  b-arrestin2 EC50: 450 nM
  b-arrestin2 Max: 36.5%
[1]
  IP One EC50: 41 nM
  IP One Max: 19.6%
  b-arrestin2 EC50: 120 nM
  b-arrestin2 Max: 67.1%
